No end group written: not given here.
Assays:
hOPN5-BSA [1] = biological target: T1, hOPN5-BSA (also: conjugated to BSA, coupling site not given here); assay: ELISA, hOPN5-BSA coated on the plate
T1 construct: RGD-containing synthetic peptide coupled to the carrier BSA and coated on ELISA or adhesion plates
T1 peptide: CVDTYDGRGDSVVYGLRS
Experimental: (§1) Binding of Ch33E10 and Hu33E10-VH1/VL6 IgG1/κ antibodies to hOPN5-BSA was examined by ELISA. As an antigen, synthetic oligopeptide ([…] provided by Gene Techno Science) conjugated to bovine serum albumin (hOPN5-BSA) was used. In a typical experiment, an ELISA plate was coated with 100 μl/well of 1 μg/ml hOPN5-BSA in 0.2 M Na₂CO₃ buffer (pH 9.4) overnight at 4° C., washed with Wash Buffer, and blocked with 300 μl/well of Blocking Buffer for 1 hr at room temperature. After washing with Wash Buffer, samples appropriately diluted in ELISA Buffer were applied at 100 μl/well in the ELISA plate. After incubating the ELISA plate overnight at 4° C. and washing with Wash Buffer, bound antibodies were detected using 100 μl/well of 1/2,000-diluted HRP-conjugated goat anti-human γ chain polyclonal antibody (SouthernBiotech). After incubating for 1 hr at room temperature and washing with Wash Buffer, color development was performed by adding 100 μl/well of ABTS substrate and stopped with 100 μl/well of 2% oxalic acid. Absorbance was read at 405 nm.
Binding of Hu33E10-VH5/VL6, Hu33E10-VH7/VL6 and Hu33E10-VH7.8/VL6 antibodies to hOPN5-BSA was compared to that of Ch33E10 by ELISA as described in Section 5. […] In repeated experiments, Hu33E10-VH7/VL6 and Hu33E10-VH7.8/VL6 behaved similarly to each other for binding to hOPN5-BSA.

hOPN5-BSA [2] = biological target: T1, hOPN5-BSA; assay: ELISA, hOPN5-BSA coated on the plate, two independent experiments
Experimental: FIGS. 21A & 21B show ELISA analysis of the binding of Ch33E10 and Hu33E10-VH7/VLv2 IgG1/κ antibodies to hOPN5-BSA. Purified Ch33E10 and Hu33E10-VH7/VLv2 antibodies were tested at various concentrations, starting at 200 μg/ml (FIG. 21A) or 100 μg/ml (FIG. 21B) and serial 2-fold dilutions, for binding to hOPN5-BSA. The results of two independent experiments in duplicate (FIGS. 21A & 21B) are shown.
as §1, with “After incubating for 1 hr at room temperature and washing with Wash Buffer, color development was performed by adding 100 μl/well of ABTS substrate and stopped with 100 μl/well of 2% oxalic acid.” left out, “nm. […]” for “nm.”

hOPN5-BSA [3] = biological target: T1, hOPN5-BSA; assay: ELISA, hOPN5-BSA coated on the plate (conclusion)

B1: Ch33E10 (chimeric 33E10 IgG1/κ antibody) (antibody, V domains shown)
VH: EVKLVESGGGLVQPGGSLSLSCAASGFTFTDYYMIWVRQPPGKALEWLGFIRNKANGYTTEYSASVKGRFTISRDNSQSILYLQMNALRAEDSATYYCARGAYWGQGTLVTVSA
VL: DVLMTQTPLSLPVSLGDQASISCRSSQSIVHSNGNTYLEWYLQKPGQSPKLLIYRVSNRFSGVPDRFSGSGSGTDFTLKISRVEAEDLGVYYCFQGSFVPWTFGGGTKLEIK
notes: also called product of NS0-Ch33E10 2C11 (L4-2C11)
binding result (hOPN5-BSA [1]): binds

B2: Hu33E10-VH1/VL6 IgG1/κ antibody (antibody, V domains shown)
VH: EVQLVESGGGLVQPGGSLRLSCAASGFTFTDYYMIWVRQAPGKGLEWLGFIRNKANGYTTEYSASVKGRFTISRDNAKNSLYLQMNSLRAEDTAVYYCARGAYWGQGTMVTVSS
VL: DIVMTQSPLSLPVTPGEPASISCRSSQSIVHSNGNTYLEWYLQKPGQSPQLLIYRVSNRFSGVPDRFSGSGSGTDFTLKISRVEAEDVGVYYCFQGSFVPWTFGQGTKVEIK
notes: Human IgG1/κ form; also called product of NS0-Hu33E10-2 #22
fold weaker binding than Ch33E10 (hOPN5-BSA [1]): ~100 fold

B3: Hu33E10-VH7/VLv2 IgG1/κ antibody (antibody, V domains shown)
VH: EVQLVESGGGLVQPGGSLRLSCAASGFTFTDYYMIWVRQAPGKGLEWLGFIRNKANGYTTEYSASVKGRFTISRDNAKSILYLQMNSLRAEDTAVYYCARGAYWGQGTMVTVSS
VL: DIVMTQSPDSLAVSLGERATISCRSSQSIVHSNGNTYLEWYLQKPGQPPKLLIYRVSNRFSGVPDRFSGSGSGTDFTLTISSLQAEDVAVYYCFQGSFVPWTFGQGTKVEIKR
notes: also called SP2-1; SP-2
fold difference of binding affinity from Ch33E10 (hOPN5-BSA [2]): ≤ 2 fold | fold difference of affinity from Ch33E10 (hOPN5-BSA [3]): ≤ 3 fold

B4: Hu33E10-VH7.8/VL6 IgG1/κ antibody (antibody, V domains shown)
VH: EVQLVESGGGLVQPGGSLRLSCAASGFTFTDYYMIWVRQAPGKGLEWLGFIRNKANGYTTEYSASVKGRFTISRDNSKSILYLQMNSLRAEDTAVYYCARGAYWGQGTMVTVSS
VL: DIVMTQSPLSLPVTPGEPASISCRSSQSIVHSNGNTYLEWYLQKPGQSPQLLIYRVSNRFSGVPDRFSGSGSGTDFTLKISRVEAEDVGVYYCFQGSFVPWTFGQGTKVEIKR
notes: also called EJ3-1-1; product of NS0-Hu33E10-5 1E5 (EJ3-3 1E5)
fold lower affinity than Ch33E10 (hOPN5-BSA [1]): ~3 fold

Source: patent US20120219503A1 (GENE TECHNO SCIENCE, published 2012)
